Results published in article PMC4107794 (The Journal of Cell Biology, 2014).

What was measured:
FLAG-Rad18 = FLAG-Rad18 (UniProt Q9NS91 1-495); experiment: pull-down
GST-Rad18 = GST-Rad18 (UniProt Q9NS91 1-495); experiment: pull-down
Sequence of GST-Rad18 (Q9NS91 whole entry): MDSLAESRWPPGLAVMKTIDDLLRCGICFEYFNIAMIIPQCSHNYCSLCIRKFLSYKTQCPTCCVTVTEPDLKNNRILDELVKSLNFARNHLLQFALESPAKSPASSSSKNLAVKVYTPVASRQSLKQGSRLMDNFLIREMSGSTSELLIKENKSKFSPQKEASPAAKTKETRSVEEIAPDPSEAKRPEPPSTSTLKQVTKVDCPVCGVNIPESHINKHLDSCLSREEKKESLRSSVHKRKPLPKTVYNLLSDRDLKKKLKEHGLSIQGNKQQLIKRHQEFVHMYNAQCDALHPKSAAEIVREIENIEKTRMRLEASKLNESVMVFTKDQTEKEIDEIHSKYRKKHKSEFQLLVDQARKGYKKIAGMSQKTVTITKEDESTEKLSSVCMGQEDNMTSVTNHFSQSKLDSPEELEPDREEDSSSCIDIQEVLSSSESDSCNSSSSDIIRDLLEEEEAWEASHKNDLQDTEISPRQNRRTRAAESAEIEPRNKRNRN

Sequence of FLAG-Rad18 (Q9NS91 whole entry): as above

B1: FLAG-SHPRH (natural protein)
chain: MSSRRKRAPPVRVDEEKRQQLHWNMHEDRRNEPIIISDDDEQPCPGSDTSSAHYIILSDSLKEEVAHRDKKRCSKVVSFSKPIEKEETVGIFSPLSVKLNIVISPYHFDNSWKAFLGELTLQLLPAQSLIENFSERSITLMSSESSNQFLIYVHSKGEDVEKQKKEPMSICDKGILVESSFSGEMLEDLGWLQKKRRIKLYQKPEGNHIIKVGIYLLEAGLAKLDFLSDANSRMKKFNQLMKKVMEKLHNSIIPDVLEEDEDDPESEPEGQDIDELYHFVKQTHQQETQSIQVDVQHPALIPVLRPYQREAVNWMLQQECFRSSPATESALHFLWREIVTSEGLKLYYNPYTGCIIREYPNSGPQLLGGILADEMGLGKTVEVLALILTHTRQDVKQDALTLPEGKVVNYFIPSHYFGGKLKKTEIQNIEFEPKEKVQCPPTRVMILTAVKEMNGKKGVSILSIYKYVSSIYRYDVQRNRSLLKRMLKCLIFEGLVKQIKGHGFSGTFTLGKNYKEEDICDKTKKQAVGSPRKIQKETRKSGNKDTDSEYLPSDTSDDDDDPYYYYYKSRRNRSKLRKKLVPSTKKGKSQPFINPDSQGHCPATSDSGITDVAMSKSTCISEFNQEHETEDCAESLNHADSDVPPSNTMSPFNTSDYRFECICGELDQIDRKPRVQCLKCHLWQHAKCVNYDEKNLKIKPFYCPHCLVAMEPVSTRATLIISPSSICHQWVDEINRHVRSSSLRVLVYQGVKKDGFLQPHFLAEQDIVIITYDVLRSELNYVDIPHSNSEDGRRLRNQKRYMAIPSPLVAVEWWRICLDEAQMVECPTVKAAEMAQRLSGINRWCISGTPVQRGLEDLFGLVVFLGIEPYCVKHWWVRLLYRPYCKKNPQHLYSFIAKILWRSAKKDVIDQIQIPPQTEEIHWLHFSPVERHFYHRQHEVCCQDVVVKLRKISDWALKLSSLDRRTVTSILYPLLRLRQACCHPQAVRGEFLPLQKSTMTMEELLTSLQKKCGTECEEAHRQLVCALNGLAGIHIIKGEYALAAELYREVLRSSEEHKGKLKTDSLQRLHATHNLMELLIARHPGIPPTLRDGRLEEEAKQLREHYMSKCNTEVAEAQQALYPVQQTIHELQRKIHSNSPWWLNVIHRAIEFTIDEELVQRVRNEITSNYKQQTGKLSMSEKFRDCRGLQFLLTTQMEELNKCQKLVREAVKNLEGPPSRNVIESATVCHLRPARLPLNCCVFCKADELFTEYESKLFSNTVKGQTAIFEEMIEDEEGLVDDRAPTTTRGLWAISETERSMKAILSFAKSHRFDVEFVDEGSTSMDLFEAWKKEYKLLHEYWMALRNRVSAVDELAMATERLRVRDPREPKPNPPVLHIIEPHEVEQNRIKLLNDKAVATSQLQKKLGQLLYLTNLEKSQDKTSGGVNPEPCPICARQLGKQWAVLTCGHCFCNECISIIIEQYSVGSHRSSIKCAICRQTTSHKEISYVFTSEKANQEEDIPVKGSHSTKVEAVVRTLMKIQLRDPGAKALVFSTWQDVLDIISKALTDNNMEFAQISRVKTFQENLSAFKRDPQINILLLPLHTGSNGLTIIEATHVLLVEPILNPAHELQAIGRVHRIGQTKPTIVHRFLIKATIEERMQAMLKTAERSHTNSSAKHSEASVLTVADLADLFTKETEELE
Which results are given for B1?
binding result (FLAG-Rad18): binds; binding result (GST-Rad18): binds
